The source of these data is patent US20140301946A1 (Novartis, published 2014).

Experiment [1] has as its target T1, Human FGFR4 ECD (human, UniProt P22455 22-369).
T1 construct: whole entry is the construct; also called FGFR4 D1-D3 construct
The experiment is described as follows: SPR (Biacore), assay conditions similar to those for 12425.

In experiment [2] the target is T1, Human FGFR4 ECD. Briefly: SPR (Biacore), antibody captured, FGFR ECD as analyte. The procedure: The immobilization level and analyte interactions were measured by response unit (RU).
Subsequently, 0.078-100 nM of FGFR receptors, diluted in a 2-fold series, were injected at a flow rate of 80 μl/min for 7 min over both reference and test flow cells. Dissociation of the binding was followed for 10 min using HBS-EP⁺ supplemented with 0.5 mg/ml of BSA and 10 μg/ml heparin as running buffer. After each injection cycle, the chip surface was regenerated with 10 mM glycine, pH 2.0 at 60 μl/min for 70 s.
On the technique in general: Surface plasmon resonance follows binding to a sensor surface in real time, without labels.

The target in the next experiment is T2, FGFR2 D2-D3 Construct (Human).
T2 construct: also called E. coli derived FGFR2 D2-D3 protein
T2 chain: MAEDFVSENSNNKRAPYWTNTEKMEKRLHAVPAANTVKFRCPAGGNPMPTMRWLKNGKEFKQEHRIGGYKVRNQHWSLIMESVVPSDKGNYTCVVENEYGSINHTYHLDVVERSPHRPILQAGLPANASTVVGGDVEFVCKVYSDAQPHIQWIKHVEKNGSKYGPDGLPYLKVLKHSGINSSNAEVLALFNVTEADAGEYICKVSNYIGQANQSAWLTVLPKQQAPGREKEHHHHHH
The experiment is described as follows: HDx-MS: deuterium uptake of FGFR2 D2-D3 peptides with mAb against control without mAb [A), D00032 FIG. 19 (B].

Experiment [3] deals with T1, Human FGFR4 ECD. The experiment is described as follows: SET or Biacore, IgG.

B1: mAb 20562 (antibody, human IgG1, kappa, V domains shown)
VH: EVQLLESGGGLVQPGGSLRLSCAASGFTFSDYAMSWVRQAPGKGLEWVSVIEGDASYTHYADSVRGRFTISRDNSKNTLYLQMNSLRAEDTAVYYCARERTYSSAFDYWGQGTLVTVSS
VL: DIQMTQSPSSLSASVGDRVTITCRASQDISSDLNWYQQKPGKAPKLLIYDASNLQSGVPSRFSGSGSGTDFTLTISSLQPEDFATYYCQQHYSPSHTFGQGTKVEIKR
As usually defined, the Kd is the free concentration of one partner at which half of the binding sites on the other are occupied at equilibrium, for simple one-to-one binding. The low end stands for tighter binding, the high end for weaker binding. On to B1, for which the Kd in the experiment with Human FGFR4 ECD [1] was determined as 3.3 nM.

B2: mAb 12439 (antibody, human IgG1, kappa, V domains shown)
VH: QVQLVQSGAEVKKPGASVKVSCKASGYTFTSYDISWVRQAPGQGLEWMGWINPYNGGTNYAQKFQGRVTMTRDTSISTAYMELSRLRSEDTAVYYCAREGSGMIVYPGWSYAFDYWGQGTLVTVSS
VL: DIQMTQSPSSLSASVGDRVTITCRASQDISNDLGWYQQKPGKAPKLLIYAASSLQSGVPSRFSGSGSGTDFTLTISSLQPEDFATYYCQQHYHTPNTFGQGTKVEIKR
For the molecule B2, in the experiment with Human FGFR4 ECD [2], the affinity, expressed as Kd, was 4.3 nM. This lies in the single-digit nanomolar range.

B3: mAb 20811 (antibody, human IgG1, kappa, V domains shown)
VH: QVQLLESGGGLVQPGGSLRLSCAASGFTFSDYAMSWVRQAPGKGLEWVSTIEGDSNYIEYADSVKGRFTISRDNSKNTLYLQMNSLRAEDTAVYYCARERTYSSAFDYWGQGTLVTVSS
VL: DIQMTQSPSSLSASVGDRVTITCRASQDISSDLNWYQQKPGKAPKLLIYDASNLQSGVPSRFSGSGSGTDFTLTISSLQPEDFATYYCHQWYSTLYTFGQGTKVEIKR
Consider B3, for which, in the experiment with FGFR2 D2-D3 Construct, the binding result is on record as “binds”. In the experiment with Human FGFR4 ECD [3], this molecule registered a Kd of 0.075 nM.

B4: mAb 12422 (antibody, human IgG1, kappa, V domains shown)
VH: QVQLVQSGAEVKKPGSSVKVSCKASGGTFSSYAISWVRQAPGQGLEWMGYISPYMGETHYAQKFQGRVTITADESTSTAYMELSSLRSEDTAVYYCARESYEYFDIWGQGTLVTVSS
VL: DIQMTQSPSSLSASVGDRVTITCRASQSISNDLAWYQQKPGKAPKLLIYATSILQSGVPSRFSGSGSGTDFTLTISSLQPEDFATYYCLQYYDYSYTFGQGTKVEIKR
Molecule B4 yielded a Kd with Human FGFR4 ECD [2] of 0.95 nM. In other words, the sub-nanomolar range.
